Results taken from PMC8904574, “Bacterial F-type ATP synthases follow a well-choreographed assembly pathway” (Nature Communications, 2022).
Values belong to the binder of their own block, whether it stands above or below them.

B1: α-subunit of the F1 part of the Na+-F1FO-ATP synthase of Acetobacterium woodii, N-terminal StrepI tag (natural protein, UniProt P50000 1-502, looked up)
chain: MNLRPEEISQIIKNEIERYEDKLEVVDVGTVIQVGDGVARVHGLENAMAGELLAFPNEVYGMVLNLEEDNVGCVLLGYDDDIVEGDIVRCTGRIVEVPVGEAMIGRVVNALGFPVDGKGPIVTDHRRPVEVKAAGVIERESVNQPIQTGYKAIDSMIPIGRGQRELIIGDRQTGKTALAIDTIINQKGEDVICIYVAIGQKDSTVAQIVGQLEENNAMDYTIIVSAGAAQLAPLQYIAPYSGVTMAEYFMNEQQKDVLIIYDDLSKHAVAYRAMSLILRRPPGREAYPGDVFYLHSRLLERAAKLKAGGSITALPIIETQAGDVSAYIPTNVISITDGQIFLEAELFRSGIRPAVNPGISVSRVGGSAQIKSMKKVAGPLRIEYAQYRELASFAQFGSDLDDETKAQLAKGERIVEILKQDQYDPMNVEDQVLILYAATNGFLLDIEVKDIREFEKGLIKFAQKKYPEIMTKVKGKDGLSDEVVAAFAECIEAYKKVFSKSV
notes: ATP synthase subunit alpha (gene atpA) of the Na+-F1FO-ATP synthase, Acetobacterium woodii; also called α[WT]; StrepI-α; source: E. coli BL21gold(DE3), purified (Strep-Tactin, SEC); not shown: StrepI, N-terminal, kept
B3: central stalk γε complex of the A. woodii F1 ATP synthase (atpG and atpC expressed bicistronically, His6 tag on ε) (complex, Acetobacterium woodii)
chain 1: MAENVQDIKRRIKSVNSTMQITHAMELVASAKLRKSRELAEGRRPYFEAMIESIGRIVEKSGNARNIFMDQREVKKTAYIIITGDKGLAGGYNVNVAKLVEEHITDKENAVLFTVGSRGRDHFRNREYHIQGEYLGISERPNFFNAKEVTAIVMEGFKNGEYDEVYIAYTKFVSTITQHAQMMKLLPLSAEELITSGKVKTTEETKEEKSKMSDRELTIMTYEPEPEELLKYLIPNFVSSTVYGSMIESAASEQGARRTAMESATTNANEMIDGLTLQYNRVRQAAITQEISEIVGGAEALN
chain 2: MAETFRLKIIAPTGVFFDDDIERVVIRGIEGELAILAEHTPLTTNVAIGTFNIIFADKKKKNGTLLGGIATINPRETIILTDAAEWPEEIDIKRAQEAKERALKRIHDDKFDTARARAALERAIARINSKENV
notes: ATP synthase subunit gamma (gene atpG) of the Na+-F1FO-ATP synthase, Acetobacterium woodii; ATP synthase subunit epsilon (gene atpC) of the Na+-F1FO-ATP synthase, Acetobacterium woodii; source: E. coli BL21gold(DE3), co-expressed, purified (Ni-NTA, SEC); copies: 1 + 1
B4: in vitro assembled αβ heterodimer (StrepI-α with His6-β, in ATP/Mg2+ or other nucleotide/Mg2+) (complex, Acetobacterium woodii)
chain 1: MNLRPEEISQIIKNEIERYEDKLEVVDVGTVIQVGDGVARVHGLENAMAGELLAFPNEVYGMVLNLEEDNVGCVLLGYDDDIVEGDIVRCTGRIVEVPVGEAMIGRVVNALGFPVDGKGPIVTDHRRPVEVKAAGVIERESVNQPIQTGYKAIDSMIPIGRGQRELIIGDRQTGKTALAIDTIINQKGEDVICIYVAIGQKDSTVAQIVGQLEENNAMDYTIIVSAGAAQLAPLQYIAPYSGVTMAEYFMNEQQKDVLIIYDDLSKHAVAYRAMSLILRRPPGREAYPGDVFYLHSRLLERAAKLKAGGSITALPIIETQAGDVSAYIPTNVISITDGQIFLEAELFRSGIRPAVNPGISVSRVGGSAQIKSMKKVAGPLRIEYAQYRELASFAQFGSDLDDETKAQLAKGERIVEILKQDQYDPMNVEDQVLILYAATNGFLLDIEVKDIREFEKGLIKFAQKKYPEIMTKVKGKDGLSDEVVAAFAECIEAYKKVFSKSV
chain 2: MAQNIGKVVQVIGPVVDVKFQKDKLPKLNNAVNIELNGHTLVIEVAQQLGDDIVRCIAMDSTDGLMRNQEAVDTGSAIQVPVGKATLGRMFNVLGEPIDGKPFDTKDVVMHPIHRHPPSFEEQQTQPEMFETGIKVVDLICPYVRGGKIGLFGGAGVGKTVLIQELINNIATQHGGLSVFAGVGERTREGNDLYYEMMESGVINKTALCFGQMNEPPGARMRIALAGLTMAEYFRDDEGQDVLLFIDNIFRFTQAGSEVSALLGRMPSAVGYQPTLATEMGALQERITSTSKGSITSVQAVYVPADDLTDPAPATTFAHLDATTVLSRAITEKGIYPAVDPLDSTSRILDPKIVGQEHYETAREVQEILQRYKELQDIIAILGMDELSDADKITVSRARKVERFLSQPFNVAEQFTGTAGVYVTIGDTIKGFKEILEGQHDDLPESAFLLVGTIEDAVVKAKKIKG
notes: ATP synthase subunit alpha (gene atpA), Acetobacterium woodii; as m1; ATP synthase subunit beta (gene atpD), Acetobacterium woodii; as m2; also called in vitro αβ; source: assembled in vitro from subunits purified from E. coli BL21gold(DE3); not shown: StrepI, N-terminal, kept; His6, N-terminal, kept; copies: 1 + 1

How the values were obtained:
Settings in all cases: both partners purified
[1] = molecular target: B3; test: native MS; LILBID-MS; purified subunits incubated in 50 mM KPi, 200 mM NaCl, 2 mM ATP, 2 mM MgCl2, 10% glycerol, pH 7.4, 4 °C, 1 h; exchanged into 100 mM ammonium acetate, 2 mM ATP, 2 mM MgCl2, pH 7.4
[2] = molecular target: T1, α-subunit mutant α[R363K], A. woodii (Acetobacterium woodii, UniProt P50000 1-502, R363K); test: SEC; HPLC on a bioZen 1.8 µm SEC-3 column, 60 µg protein, elution buffer B (50 mM KPi, 200 mM NaCl, 2 mM ATP, 2 mM MgCl2, pH 7.4), 4 °C
T1 construct: ATP synthase subunit alpha (gene atpA), Acetobacterium woodii, point mutant; source: E. coli BL21gold(DE3), purified (Strep-Tactin, SEC)

[3] = molecular target: T2, α-subunit mutant α[R363Q], A. woodii (Acetobacterium woodii, UniProt P50000 1-502, R363Q); test: as above
T2 construct: ATP synthase subunit alpha (gene atpA), Acetobacterium woodii, point mutant; source: E. coli BL21gold(DE3), purified (Strep-Tactin, SEC)

[4] = molecular target: B1; test: native MS; LILBID-MS; purified subunits incubated in 50 mM KPi, 200 mM NaCl, 2 mM ATP, 2 mM MgCl2, 10% glycerol, pH 7.4, 4 °C, 1 h; exchanged into 100 mM ammonium acetate, 2 mM ATP, 2 mM MgCl2, pH 7.4
[5] = molecular target: T3, α[R363Q]β[WT] heterodimer assembled in vitro in ATP/Mg2+ (Acetobacterium woodii, UniProt P50000 1-502; P50002 1-466, R363Q); test: as above
T3 construct: ATP synthase subunit alpha (gene atpA), Acetobacterium woodii; as m9; ATP synthase subunit beta (gene atpD), Acetobacterium woodii; as m2; source: assembled in vitro from subunits purified from E. coli BL21gold(DE3); not shown: His6, N-terminal, kept; copies: 1 + 1

[6] = molecular target: B4; test: as above

Binder: B1
stoichiometry N [1]: ≤ 1

binding result [2]: binds
binding result [3]: binds
stoichiometry N [1]: ≤ 1
binding result [4]: binds
B2: β-subunit of the F1 part of the Na+-F1FO-ATP synthase of Acetobacterium woodii, N-terminal His6 tag (natural protein, UniProt P50002 1-466, looked up)
chain: MAQNIGKVVQVIGPVVDVKFQKDKLPKLNNAVNIELNGHTLVIEVAQQLGDDIVRCIAMDSTDGLMRNQEAVDTGSAIQVPVGKATLGRMFNVLGEPIDGKPFDTKDVVMHPIHRHPPSFEEQQTQPEMFETGIKVVDLICPYVRGGKIGLFGGAGVGKTVLIQELINNIATQHGGLSVFAGVGERTREGNDLYYEMMESGVINKTALCFGQMNEPPGARMRIALAGLTMAEYFRDDEGQDVLLFIDNIFRFTQAGSEVSALLGRMPSAVGYQPTLATEMGALQERITSTSKGSITSVQAVYVPADDLTDPAPATTFAHLDATTVLSRAITEKGIYPAVDPLDSTSRILDPKIVGQEHYETAREVQEILQRYKELQDIIAILGMDELSDADKITVSRARKVERFLSQPFNVAEQFTGTAGVYVTIGDTIKGFKEILEGQHDDLPESAFLLVGTIEDAVVKAKKIKG
notes: ATP synthase subunit beta (gene atpD) of the Na+-F1FO-ATP synthase, Acetobacterium woodii; also called β[WT]; His6-β; source: E. coli BL21gold(DE3), purified (Ni-NTA, SEC); also co-expressed with other F1 subunits in E. coli as the tagged subunit of the in cellula complexes; not shown: His6, N-terminal, kept

Binder: B3
binding result [5]: binds
binding result [6]: binds

Binder: B4
stoichiometry N [1]: 3
